{"source": "paper PMC2878840", "key": {"[1]": {"assay": "ZO-1 immunoprecipitation, Western blot", "conditions": "glycan lost; control: wild type E-cadherin (E-cad-myc)"}, "[2]": {"assay": "TER of confluent monolayers on Transwells", "conditions": "glycan lost; control: wild type E-cadherin (E-cad-myc)"}, "[3]": {"assay": "anti-CNX Western blot normalised to actin", "conditions": "glycan lost; control: mock-transfected cells"}, "[4]": {"assay": "confocal immunofluorescence, x-z sections", "conditions": "glycan lost; control: wild type E-cadherin"}, "[5]": {"assay": "Western blot normalised to ZO-1 or claudin-1", "conditions": "glycan lost; control: wild type E-cadherin (E-cad-myc)"}}}
{"protein": "E-cadherin: V13 (protein) parent chain: MGPWSRSLSALLLLLQVSSWLCQEPEPCHPGFDAESYTFTVPRRHLERGRVLGRVNFEDCTGRQRTAYFSLDTRFKVGTDGVITVKRPLRFHNPQIHFLVYAWDSTYRKFSTKVTLNTVGHHHRPPPHQASVSGIQAELLTFPNSSPGLRRQKRDWVIPPISCPENEKGPFPKNLVQIKSNKDKEGKVFYSITGQGADTPPVGVFIIERETGWLKVTEPLDRERIATYTLFSHAVSSNGNAVEDPMEILITVTDQNDNKPEFTQEVFKGSVMEGALPGTSVMEVTATDADDDVNTYNAAIAYTILSQDPELPDKNMFTINRNTGVISVVTTGLDRESFPTYTLVVQAADLQGEGLSTTATAVITVTDTNDNPPIFNPTTYKGQVPENEANVVITTLKVTDADAPNTPAWEAVYTILNDDGGQFVVTTNPVNNDGILKTAKGLDFEAKQQYILHVAVTNVVPFEVSLTTSTATVTVDVLDVNEAPIFVPPEKRVEVSEDFGVGQEITSYTAQEPDTFMEQKITYRIWRDTANWLEINPDTGAISTRAELDREDFEHVKNSTYTALIIATDNGSPVATGTGTLLLILSDVNDNAPIPEPRTIFFCERNPKPQVINIIDADLPPNTSPFTAELTHGASANWTIQYNDPTQESIILKPKMALEVGDYKINLKLMDNQNKDQVTTLEVSVCDCEGAAGVCRKAQPVEAGLQIPAILGILGGILALLILILLLLLFLRRRAVVKEPLLPPEDDTRDNVYYYDEEGGGEEDQDFDLSQLHRGLDARPEVTRNDVAPTLMSVPRYLPRPANPDEIGNFIDENLKAADTDPTAPPYDSLLVFDYEGSGSEAASLSSLNSSESDKDQDYDYLNEWGNRFKKLADMYGGGEDD", "values": [{"measurement": "other: claudin-1 in ZO-1 complexes", "setting": "[1]", "result": "increases"}, {"measurement": "other: transepithelial resistance", "setting": "[2]", "result": "increases"}, {"measurement": "other: calnexin expression (UPR marker)", "setting": "[3]", "result": "no change"}, {"measurement": "other: apical localisation of gp135 and ZO-1", "setting": "[4]", "result": "increases"}, {"measurement": "other: Ser-phosphorylation of ZO-1 and claudin-1", "setting": "[5]", "result": "increases"}]}
